Assay results taken from patent US20260001961A1 (ALLIGATOR BIOSCIENCE, published 2026).
Positions count from the first letter of the chain named. Numbers in names are those of the source. Where two headings read alike, the source gives them in different places.

Columns and labels:
[1] = molecular target: T1, 5T4 (UniProt Q13641 32-355); test: dual target ELISA (simultaneous 5T4 and CD40)
T1 construct: also called 5T4 antigen (dual target ELISA)
T1 sequence (looked up): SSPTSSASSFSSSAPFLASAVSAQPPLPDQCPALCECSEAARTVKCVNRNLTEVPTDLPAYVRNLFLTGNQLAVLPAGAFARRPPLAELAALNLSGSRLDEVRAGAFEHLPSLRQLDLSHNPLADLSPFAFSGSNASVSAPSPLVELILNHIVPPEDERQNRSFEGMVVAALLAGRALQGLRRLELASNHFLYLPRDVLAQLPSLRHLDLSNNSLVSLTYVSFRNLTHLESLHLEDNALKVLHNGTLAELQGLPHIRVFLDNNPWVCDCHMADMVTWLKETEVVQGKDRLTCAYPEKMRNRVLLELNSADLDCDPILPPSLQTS
Method: (§1) Antigen binding was evaluated by dual target ELISA. In brief, relevant antigens were coated at 0.5 μg/ml in PBS in ELISA plates over night at 4° C. After washing in PBS/0.05% Tween 20 (PBST), the plates were blocked with PBST/2% BSA for at least 30 minutes at room temperature before being washed again. Samples serially diluted in PBST/0.5% BSA were then added and allowed to bind for at least 1 hour at room temperature. […] Dual complexed bsAb were detected with HRP-labelled streptavidin. SuperSignal Pico Luminescent was used as substrate and luminescence signals were measured using Fluostar Optima. Binding was compared between parental and mutated RUBY pairs.

[2] = molecular target: T2, 5T4 expressed on CHO cells (UniProt Q13641 32-420, limits assumed); test: flow cytometry on CHO cells expressing 5T4, anti-human IgG Fcg-PE; CHOwt cells as control
T2 construct: whole, on cells; also called CHO-5T4; 5T4 expressing CHO cells
T2 sequence (looked up): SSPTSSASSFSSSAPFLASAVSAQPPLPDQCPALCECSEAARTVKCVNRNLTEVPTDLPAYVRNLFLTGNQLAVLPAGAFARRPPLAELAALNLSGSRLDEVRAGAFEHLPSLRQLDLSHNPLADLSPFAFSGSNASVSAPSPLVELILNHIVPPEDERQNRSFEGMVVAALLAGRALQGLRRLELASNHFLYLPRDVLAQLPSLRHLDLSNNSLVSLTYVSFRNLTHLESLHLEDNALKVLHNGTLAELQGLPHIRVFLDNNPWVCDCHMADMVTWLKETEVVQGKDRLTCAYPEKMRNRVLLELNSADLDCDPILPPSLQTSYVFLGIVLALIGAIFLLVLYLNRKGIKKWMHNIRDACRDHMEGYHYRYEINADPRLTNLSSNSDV
Method: (§2) Binding to respective targets expressed on cells were evaluated using flow cytometry. I brief, CHO cells modified to express 5T4, B16 cells modified to express CD40 as well as the wildtype CHO and B16 cell lines were incubated with titrated concentrations of RUBY™ bsAbs. Binding of the antibodies was detected using fluorochrome-conjugated anti-human IgG and analyzed using flow cytometry.

[3] = molecular target: T3, CD40 expressed on cells (UniProt P25942 21-277); test: flow cytometry on B16 cells expressing CD40, anti-human IgG Fcg-PE; B16wt cells as control
T3 construct: whole, on cells; also called B16-CD40; CD40 expressing B16 cells
Method: as §2

[4] = molecular target: T4, CD40 (UniProt P25942 21-193); test: Octet BLI; biotinylated CD40 on streptavidin sensor;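 further: octet RED96 biolayer interferometry, 300 s association then 300 s dissociation in kinetic buffer, buffer-blank referenced, fitted with a 1:1 Langmuir binding model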
T4 construct: also called biotinylated CD40; CD40 antigen
Method: (§3) Kinetic measurements were performed using the Octet RED96 platform (ForteBIo). […] Association was followed for 300 seconds followed by dissociation in 1x Kinetic buffer for 300 seconds. Sensor tips were regenerated using 10 mM glycine, pH 1.7. Data generated were referenced by subtracting a parallel buffer blank, the baseline was aligned with the γ-axis, inter-step correlation by alignment against dissociation was performed and the data were smoothed by a Savitzky-Golay filter in the data analysis software (v.9.0.0.14). The processed data were fitted using a 1:1 Langmuir binding model with X2 as a measurement of fitting accuracy.
(§4) Binding affinities of all the variants were determined using Octet (Pall ForteBio).

[5] = molecular target: T5, EpCAM (UniProt P16422 24-265); test: Octet BLI; biotinylated EpCAM on streptavidin sensor;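 further: octet RED96 kinetics: 300 s association, then 300 s dissociation in 1x Kinetic buffer, buffer-blank referenced, Savitzky-Golay smoothed, fitted to a 1:1 Langmuir binding model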
T5 construct: also called biotinylated EpCAM
T5 sequence (looked up): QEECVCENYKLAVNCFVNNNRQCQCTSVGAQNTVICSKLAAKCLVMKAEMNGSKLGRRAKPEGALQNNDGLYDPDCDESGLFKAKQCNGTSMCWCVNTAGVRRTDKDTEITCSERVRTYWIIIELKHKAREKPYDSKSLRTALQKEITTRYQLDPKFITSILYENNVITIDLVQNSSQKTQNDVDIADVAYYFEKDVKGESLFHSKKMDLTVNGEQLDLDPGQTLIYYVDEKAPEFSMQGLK
Method: as §3, §4

[6] = molecular target: T4, CD40; test: dual ELISA: CD40 coated, bsAb titrated, biotinylated EpCAM + streptavidin-HRP; signal needs both targets
Method: (§5) Dual ELISA Plates were coated with 0.5 μg/mL CD40 in PBS over night at 4° C. After washing in PBS/0.05% Tween 20 (PBST), the plates were blocked with PBS/2% BSA for at least 30 minutes at room temperature before being washed again. Samples serially diluted in PBS/0.5% BSA were then added and allowed to bind for at least 1 hour at room temperature. […] Dual complexed bsAb with CD40 and EpCAM were detected with HRP-labelled streptavidin. SuperSignal Pico Luminescent was used as substrate and luminescence signals were measured using Fluostar Optima.

[7] = molecular target: T4, CD40; test: as above; remark: listed apart in the source
Method: as §5

[8] = molecular target: T2, 5T4 expressed on CHO cells; test: flow cytometry on CHO cells expressing 5T4, anti-human IgG Fcg-PE; CHOwt cells as control; remark: listed apart in the source
Method: as §2

[9] = molecular target: T3, CD40 expressed on cells; test: flow cytometry on B16 cells expressing CD40, anti-human IgG Fcg-PE; B16wt cells as control; remark: listed apart in the source
Method: as §2

[10] = molecular target: T4, CD40; test: dual target ELISA (simultaneous 5T4 and CD40)
Method: as §1

[11] = molecular target: T3, CD40 expressed on cells; test: flow cytometry on B16 cells expressing CD40, anti-human IgG Fcg-PE; B16wt cells as control; remark: listed apart in the source
Method: as §2

T4 sequence (P25942 21-193 limits assumed): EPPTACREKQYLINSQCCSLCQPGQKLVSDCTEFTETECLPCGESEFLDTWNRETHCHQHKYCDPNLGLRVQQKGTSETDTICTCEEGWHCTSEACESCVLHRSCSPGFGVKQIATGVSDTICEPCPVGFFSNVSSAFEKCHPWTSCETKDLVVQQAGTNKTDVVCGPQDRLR
T3 sequence (P25942 21-277 limits assumed): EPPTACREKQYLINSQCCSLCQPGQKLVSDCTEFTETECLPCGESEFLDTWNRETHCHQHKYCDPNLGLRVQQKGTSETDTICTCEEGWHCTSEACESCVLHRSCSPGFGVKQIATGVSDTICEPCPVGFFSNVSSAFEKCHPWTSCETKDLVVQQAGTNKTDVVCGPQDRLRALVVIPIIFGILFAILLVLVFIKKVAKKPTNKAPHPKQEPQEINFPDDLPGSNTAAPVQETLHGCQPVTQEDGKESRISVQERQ

B1: AC_05374 (bispecific antibody, human IgG1, lambda, L234A L235A)
heavy 1: not shown
light: not shown
heavy 2: EVQLLESGGGLVQPGGSLRLSCAASGFTFSSYAMSWVREAPGKGLEWVSAISGSGGSAYYADSVKGRFTISRDNSKNTLYLQMNSLRAEDTAVYYCARYYGGYYSAWMDYWGQGTLVTVSSASTKGPSVFPLAPSSKSTSGGTAALGCLVKDYFPEPVTVSWNSGALTSGVHTFPAVLQSSGLYSLSSVVEVPSSSLGTQTYICNVNHKPSNTKVDKKVEPKSC
notes: AC_05330 with the mutation in the VH of chain H2; also called T65A mutant of AC_05330; copies: 2 + 2 + 2
B1 was tested, and the binding result [1] was “no binding”, the binding result [2] was “no binding (tested: about 700 nM)” and the “EC50 (read off the curve)” value [3] was about 0.5 nM.

B2: AC_05375 (bispecific antibody, human IgG1, lambda, L234A L235A)
heavy 1: not shown
light: not shown
heavy 2: B1 heavy 2 with A58I
notes: AC_05330 with the mutation in the VH of chain H2; also called T65I mutant of AC_05330; copies: 2 + 2 + 2
For B2, the binding result [1] was “no binding”, the binding result [2] was “no binding (tested: about 700 nM)” and the “EC50 (read off the curve)” value [3] was about 0.4 nM.

B3: AM_4115-4131 (bispecific antibody)
heavy 1: not shown
light: DIQMTQSPSSLSASVGDRVTITCRASQSISSYLNWYQEKPGKAPKLLIYAASSLQSGVPSRFSGSGSGTDFTLTISSLQPEDFATYYCQQYGRNPPTFGQGTKLEIKRTVAAPSVFIFPPSDEQLKSGTASVVCYLNNFYPREAKVQWKVDNALQSGNSQESVTEQDSKDSTYSLWSTLTLSKADYEKHKVYACEVTHQGLSSPVTKSFNRGEC
heavy 2: EVQLLEQSGAELVRPGTSVKISCKASGYAFTNYWLGWVKERPGHGLEWIGDIFPGSGNIHYNEKFKGKATLTADKSSSTAYMQLSSLTFEDSAVYFCARLRNWDEPMDYWGQGTTVTVSSASTKGPSVFPLAPSSKSTSGGTAALGCLVKDYFPEPVTVSWNSGALTSGVHTFPAVLQSSGLWSLSSVVEVPSSSLGTQTYICNVNHKPSNTKVDKKVEPKSC
notes: AC_05293 backbone; also called double mutant I126S + Y180W; copies: 2 + 2 + 2
Binder B3 has a Kd [4] of 0.97 nM, a koff [4] of 0.00089 s⁻¹ and a kon [4] of 920000 M⁻¹ s⁻¹. It also gave a Kd [5] of 7.2 nM, a koff [5] of 0.0013 s⁻¹ and a kon [5] of 180000 M⁻¹ s⁻¹. For the same binder, the “EC50 (read off the curve)” value [6] was about 0.6 nM.

B4: 4115 (bispecific antibody)
heavy 1: not shown
heavy 2: B3 heavy 2 with W183Y
light: B3 light
notes: also called single mutant I126S of AC_05293; copies: 2 + 2 + 2
In the case of B4, the “EC50 (read off the curve)” value [7] is reported as about 0.2 µg/mL.

B5: AC_05332 (bispecific antibody, human IgG1, kappa, L234A L235A)
heavy: not shown
light: B3 light with Y91T, G92Y, R93G, N94Y, P95L, P96H
chain: EVQLLESGGGLVQPGGSLRLSCAASGFTFSSYAMSWVREAPGKGLEWVSGIGSYGGGTYYADSVKGRFTISRDNSKNTLYLQMNSLRAEDTAVYYCARYVNFGMDYWGQGTLVTVSSASTKGPSVFPLAPSSKSTSGGTAALGCLVKDYFPEPVTVSWNSGALTSGVHTFPAVLQSSGLYSLSSVVEVPSSSLGTQTYICNVNHKPSNTKVDKKVEPKSC
notes: RUBY format; H1 (role heavy) = IgG heavy chain-linker-Fab light chain, L1 (role light) = IgG light chain, H2 (role chain) = Fab heavy chain; also called parental bsAb AC_05332; 5T4xCD40
In the case of B5, the “EC50 (read off the curve)” value [8] is reported as about 10 nM and the “EC50 (read off the curve)” value [9] is reported as about 5 nM.

B6: 4116 (bispecific antibody)
heavy 1: not shown
heavy 2: B3 heavy 2 with W183Y
light: B3 light
notes: also called single mutant I126T of AC_05293; copies: 2 + 2 + 2
With B6 the “EC50 (read off the curve)” value [7] was about 0.1 µg/mL.

B7: AM_4115-4126 (bispecific antibody)
heavy 1: not shown
heavy 2: B3 heavy 2 with W183I
light: B3 light
notes: AC_05293 backbone; also called double mutant I126S + Y180I; copies: 2 + 2 + 2
B7 showed a Kd [4] of 1.1 nM, a koff [4] of 0.00085 s⁻¹ and a kon [4] of 740000 M⁻¹ s⁻¹. For the same binder, the Kd [5] was 6.9 nM, the koff [5] was 0.0011 s⁻¹ and the kon [5] was 170000 M⁻¹ s⁻¹. For the same binder, the “EC50 (read off the curve)” value [6] was about 0.5 nM.

B8: AC_05376 (bispecific antibody)
heavy 1: not shown
light: B3 light
heavy 2: B1 heavy 2 with A58E
notes: AC_05302 with the mutation in the VH of chain H2; also called T65E mutant of AC_05302; copies: 2 + 2 + 2
B8: no binding [10]; no binding (tested: about 330 nM) [11].
